Measurements reported in patent US20260209332A1 (SORRISO PHARMACEUTICALS, published 2026).
Values belong to the binder of their own block, whether it stands above or below them.

Legend:
[1] = target: T1, tumor necrosis factor alpha (TNF-alpha) (UniProt P01375 77-233); experiment: competition ELISA on TNF-alpha; competitor: biotinylated adalimumab
T1 construct: Called a homo-trimeric protein in the general description

[2] = target: T1, tumor necrosis factor alpha (TNF-alpha); experiment: competition ELISA on TNF-alpha; competitor: biotinylated adalimumab; arm liberated by trypsin
interleukin-23 (IL-23) [3] = target: T2, interleukin-23 (IL-23) (UniProt Q9NPF7 20-189; P29460 23-328); experiment: IL-23/IL-23R interference ELISA; blocked interaction: IL-23 with IL-23 receptor; arm liberated by trypsin
T2 sequence (looked up) 1: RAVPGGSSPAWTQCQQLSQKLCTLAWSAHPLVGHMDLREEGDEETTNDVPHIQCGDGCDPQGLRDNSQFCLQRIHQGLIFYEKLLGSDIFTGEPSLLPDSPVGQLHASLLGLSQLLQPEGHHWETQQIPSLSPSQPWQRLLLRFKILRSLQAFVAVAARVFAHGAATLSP
T2 sequence (looked up) 2: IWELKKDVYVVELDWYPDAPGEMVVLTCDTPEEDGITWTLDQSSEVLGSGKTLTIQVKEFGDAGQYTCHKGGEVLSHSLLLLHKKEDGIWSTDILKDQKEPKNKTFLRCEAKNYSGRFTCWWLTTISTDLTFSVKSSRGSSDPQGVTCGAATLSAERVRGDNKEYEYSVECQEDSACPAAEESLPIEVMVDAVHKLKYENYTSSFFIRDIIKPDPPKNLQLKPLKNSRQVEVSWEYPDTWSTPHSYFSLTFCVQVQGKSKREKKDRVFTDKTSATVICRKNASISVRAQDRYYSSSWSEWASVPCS

interleukin-23 (IL-23) [4] = target: T2, interleukin-23 (IL-23); experiment: IL-23/IL-23R interference ELISA; blocked interaction: IL-23 with IL-23 receptor

T1 sequence (P01375 77-233 limits assumed): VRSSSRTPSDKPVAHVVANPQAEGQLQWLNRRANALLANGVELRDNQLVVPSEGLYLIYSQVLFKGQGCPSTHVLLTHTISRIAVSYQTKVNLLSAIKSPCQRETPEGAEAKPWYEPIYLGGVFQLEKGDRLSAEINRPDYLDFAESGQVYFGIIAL

B1: TNF-alpha inhibitor (anti-TNF-alpha single domain antibody, parent monomer) (VHH)
VHH: DVQLVESGGGLVQPGGSLKLSCAASGFDFSSHWMYWVRQAPGKELEWLSEINTNGLITHYGDSVKGRFTVSRNNAANKMYLELTRLEPEDTALYYCARNQHGLNKGQGTQVTVSS
notes: Produced and purified from yeast; also called ID-38F
IC50 (read off the curve) [1]: ~0.3 nM

B2: liberated anti-TNF-alpha monomer arm of TNF-alpha/IL-23 dual inhibitor (VHH)
VHH: B1 VHH
notes: Cleavage product; carries the remnant of the linker at its C-terminus; also called liberated-TNF
IC50 (read off the curve) [2]: ~0.2 nM

IC50 (read off the curve) (interleukin-23 (IL-23) [3]): ~0.1 nM
B3: liberated anti-IL-23 monomer arm of TNF-alpha/IL-23 dual inhibitor (VHH)
VHH: EVQLVESGGGQVQPGGSLSLSCESSVSIWSFKVMGWFRQVPGKQRELVATITTGGSPDYSDSVKGRFTISRDYDKRTLYLQMNSLKPEDTAVYYCAGRLWAHITSSGHDVWGQGTQVTVSS
notes: Cleavage product; carries the remnant of the linker at its N-terminus; also called liberated-IL-23

IC50 (read off the curve) (interleukin-23 (IL-23) [4]): ~0.2 nM
B4: IL-23 inhibitor (anti-IL-23 single domain antibody, parent monomer) (VHH)
VHH: B3 VHH
notes: Produced in yeast; also called IL-23: D1E ID-L253T

IC50 (read off the curve) (interleukin-23 (IL-23) [4]): ~0.2 nM
B5: TNF-alpha/IL-23 dual inhibitor (bispecific anti-TNF-alpha/anti-IL-23 domain antibody) (bispecific antibody)
chain: DVQLVESGGGLVQPGGSLKLSCAASGFDFSSHWMYWVRQAPGKELEWLSEINTNGLITHYGDSVKGRFTVSRNNAANKMYLELTRLEPEDTALYYCARNQHGLNKGQGTQVTVSSGGGGSGGGGSKGGGGSGGGGSEVQLVESGGGQVQPGGSLSLSCESSVSIWSFKVMGWFRQVPGKQRELVATITTGGSPDYSDSVKGRFTISRDYDKRTLYLQMNSLKPEDTAVYYCAGRLWAHITSSGHDVWGQGTQVTVSS
notes: Produced and purified from yeast; also called FA1K
IC50 (read off the curve) [1]: ~0.2 nM
